In publication PMC11005340:

Legend:
[1] = target: HIV-1AD8 Env N332E (HIV-1 (strain AD8))
[2] = target: HIV-1AD8 Env N332L (HIV-1 (strain AD8))
[3] = target: HIV-1AD8 Env N332Y (HIV-1 (strain AD8))

Measured: neutralisation of pseudovirus infection of Cf2-Th/CD4+CCR5+ cells, IC50 (one of the three changes with the highest resistance to PGT121)

PGT121 (antibody)
< 1 µg/mL: all assays above
